Source: US20210292396A1
“And” between values parts separate entries of the source, which are not always exact repeats. Equal values may be shown once.

Tests used:
Experiment in all cases: cell-based or functional assay
[1] = biological target: HIV Env of isolate WITO4160.33 (HIV)
[2] = biological target: HIV Env of isolate 7030102001E5(Rev-) (HIV)
[3] = biological target: HIV Env of isolate 1054_07_TC4_1499 (HIV)
[4] = biological target: HIV Env of isolate HIV-001428-2.42 (HIV)
[5] = biological target: HIV Env of isolate 62357_14_D3_4589 (HIV)
[6] = biological target: HIV Env of isolate 0260.v5.c36 (HIV)
[7] = biological target: HIV Env of isolate BJOX028000.10.3 (HIV)
[8] = biological target: HIV Env of isolate T278-50 (HIV)
[9] = biological target: HIV Env of isolate Du156.12 (HIV)
[10] = biological target: HIV Env of isolate SC422661.8 (HIV)
[11] = biological target: HIV Env of isolate 928-28 (HIV)
[12] = biological target: HIV Env of isolate ZM249M.PL1 (HIV)
[13] = biological target: HIV Env of isolate QH0692.42 (HIV)
[14] = biological target: HIV Env of isolate REJO4541.67 (HIV)
[15] = biological target: HIV Env of isolate TRO.11 (HIV)
[16] = biological target: HIV Env of isolate ZM233M.PB6 (HIV)
[17] = biological target: HIV Env of isolate ZM214M.PL15 (HIV)
[18] = biological target: HIV Env of isolate HIV-16055-2.3 (HIV)
[19] = biological target: HIV Env of isolate 6240_08_TA5_4622 (HIV)
[20] = biological target: HIV Env of isolate ZM247v1(Rev-) (HIV)
[21] = biological target: HIV Env of isolate T251-18 (HIV)
[22] = biological target: HIV Env of isolate 191084_B7-19 (HIV)
[23] = biological target: HIV Env of isolate Ce1176_A3 (HIV)
[24] = biological target: HIV Env of isolate T255-34 (HIV)
[25] = biological target: HIV Env of isolate P0402_C2_11 (HIV)
[26] = biological target: HIV Env of isolate HIV-16845-2.22 (HIV)
[27] = biological target: HIV Env of isolate 6480.v4.c25 (HIV)
[28] = biological target: HIV Env of isolate Du422.1 (HIV)
[29] = biological target: HIV Env of isolate 0815.v3.c3 (HIV)
[30] = biological target: HIV Env of isolate 6952.v1.c20 (HIV)
[31] = biological target: HIV Env of isolate TRJO4551.58 (HIV)
[32] = biological target: HIV Env of isolate 6041.v3.c23 (HIV)
[33] = biological target: HIV Env of isolate X1254_c3 (HIV)
[34] = biological target: HIV Env of isolate 6540.v4.c1 (HIV)

B1: ePGT121.15.H2.L1 (antibody, V domains shown)
VH: QMQLQESGPGLVKPGETLSLTCSVSGASISSSYWSWLRETPGKGLEWIGYTHHSGDTNYAPSLKSRVHLGLHPSKNQVSLSLTSVTAADTAVYYCARTLHGRRIYGVVAFNEWFTYFYWEVWGKGTQVTVSS
VL: SDISVAPGETVRISCGGESIGSRAVQWYQHRAGQAPKLIIYNNQDRPPGIPERFSGSPDIDFGTTATLTITNVEAGDEATYYCHIWDSRRPTNWVFGGGTTLTVL
B1 was tested, and the neutralization (Table 6 value) [1] was 0.00428 and 0.00241, the neutralization (Table 6 value) [2] was 0.00197 and the neutralization (Table 6 value) [3] was 0.00114. The neutralization (Table 6 value) [4] was 0.00136, the neutralization (Table 6 value) [5] was 0.0109 and the neutralization (Table 6 value) [6] was 0.00199. It also gave a neutralization (Table 6 value) [7] of 0.00577, a neutralization (Table 6 value) [8] of 0.0127 and a neutralization (Table 6 value) [9] of 0.000443. It also gave a neutralization (Table 6 value) [10] of 0.00145, a neutralization (Table 6 value) [11] of 0.0488 and a neutralization (Table 6 value) [12] of 0.00837. For the same binder, the neutralization (Table 6 value) [13] was 0.0116, the neutralization (Table 6 value) [14] was 0.435 and the neutralization (Table 6 value) [15] was 0.00115. For the same binder, the neutralization (Table 6 value) [16] was 0.0048 and 0.00672, the neutralization (Table 6 value) [17] was 0.00727 and the neutralization (Table 6 value) [18] was 0.698. The neutralization (Table 6 value) [19] was 0.004, the neutralization (Table 6 value) [20] was 0.000909 and the neutralization (Table 6 value) [21] was 0.0252. The neutralization (Table 6 value) [22] was 0.00196, the neutralization (Table 6 value) [23] was 0.00206 and the neutralization (Table 6 value) [24] was 0.00375 and 0.00245. It also gave a neutralization (Table 6 value) [25] of 0.00193, a neutralization (Table 6 value) [26] of 0.0222 and a neutralization (Table 6 value) [27] of 4.5e-05. It also gave a neutralization (Table 6 value) [28] of 0.00326, a neutralization (Table 6 value) [29] of 0.000394 and a neutralization (Table 6 value) [30] of 0.000842. It also gave a neutralization (Table 6 value) [31] of 0.00583, a neutralization (Table 6 value) [32] of 0.275 and a neutralization (Table 6 value) [33] of 0.00235. The neutralization (Table 6 value) [34] was 0.652.
